Results: article PMC9144876 (Protein Science : A Publication of the Protein Society, 2022)

Target: extracellular domain of SARS‐CoV‐2 spike protein (ECD) (SARS‐CoV‐2, UniProt P0DTC2 14-1213)
Test: ELISA

B1: h‐deface2 (designed binder)
chain: EFHGPSWCLTPADRGLCRANENRFYYNSVIGKCRPFKYSGCGGNENNFTSKDKCLHECKKG
Kd: 54.4 nM
